# Laboratory results reported in publication PMC7089426, “C8J_1298, a bifunctional thiol oxidoreductase of Campylobacter jejuni, affects Dsb (disulfide bond) network functioning” (PLoS ONE, 2020).
# B1: C8J_1298, periplasmic dimeric thiol oxidoreductase of Campylobacter jejuni 81116 (recombinant, lacking the signal sequence, C-terminal His-Tag) (enzyme)
# chain: ASNSEISDFYSKSIKAQFPNATVSVSNRQKVGNTGFESVIVSVELNGQKQENILFTKDSLITPDLIDLKTGISYAQEYEMKKFQEARENFTKNAKAVAQKETMVIALGDKNKPAIYVFSDPECPYCREHLAQIDDELKNYQVNYILTPVHGKSAFEKSALIYKEAKKAKNDKEKIAILNKYYDANIKNYPKVSDAELKEVFSLYEKYRSLGLSATPTIIK
# Molecular target: the molecule itself
# Assay: cross-linking; glutaraldehyde (0.0001-0.02% v/v), C8J_1298 at 1.8 mg/ml, room temperature, 20 min, 0.05 M bicine-NaOH pH 8.5, 0.1 mM DTT, 0.4 M NaCl; quenched with ethanolamine-HCl pH 8.0
protein,measurement,value
B1,stoichiometry N,2
